# In patent US20090221476A1:
# Molecular target: tubulin purified on a phosphocellulose column (mouse)
# Experiment: cell-based or functional assay
# Sequence of tubulin purified on a phosphocellulose column (mouse) (P68369 whole entry, chain 1 of 2): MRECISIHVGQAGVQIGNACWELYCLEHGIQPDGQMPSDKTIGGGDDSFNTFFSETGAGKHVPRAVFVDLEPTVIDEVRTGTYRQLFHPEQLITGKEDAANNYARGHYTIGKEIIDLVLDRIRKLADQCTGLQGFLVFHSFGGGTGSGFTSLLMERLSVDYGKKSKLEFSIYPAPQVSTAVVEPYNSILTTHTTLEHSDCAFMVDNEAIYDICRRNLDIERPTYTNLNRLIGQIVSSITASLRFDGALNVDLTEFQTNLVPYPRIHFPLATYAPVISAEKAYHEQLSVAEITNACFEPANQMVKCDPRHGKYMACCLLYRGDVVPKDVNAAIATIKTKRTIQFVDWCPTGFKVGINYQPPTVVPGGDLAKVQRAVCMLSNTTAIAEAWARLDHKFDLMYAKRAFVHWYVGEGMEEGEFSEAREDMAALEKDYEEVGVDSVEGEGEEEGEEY
# Sequence of tubulin purified on a phosphocellulose column (mouse) (Q9ERD7 whole entry, chain 2 of 2, further chain): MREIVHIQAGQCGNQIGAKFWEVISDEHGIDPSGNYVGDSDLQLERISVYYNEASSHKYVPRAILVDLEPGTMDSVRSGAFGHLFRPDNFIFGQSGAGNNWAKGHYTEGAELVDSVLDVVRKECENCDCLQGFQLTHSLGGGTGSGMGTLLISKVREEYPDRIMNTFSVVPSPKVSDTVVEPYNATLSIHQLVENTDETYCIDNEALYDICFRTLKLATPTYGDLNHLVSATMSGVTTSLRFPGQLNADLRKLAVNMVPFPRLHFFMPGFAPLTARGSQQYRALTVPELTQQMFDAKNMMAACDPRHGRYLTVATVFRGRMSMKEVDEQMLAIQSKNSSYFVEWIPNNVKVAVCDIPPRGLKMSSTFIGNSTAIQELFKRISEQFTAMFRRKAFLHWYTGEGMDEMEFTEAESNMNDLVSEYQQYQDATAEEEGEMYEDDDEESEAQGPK
Substance,inhibition of tubulin polymerization (% inhibition at 100 µM),T98G cells in phase G1 after 48 hours with 10 µM peptide (FACS; 39% in untreated cultures) (% of cells in G1)
Neurofilament Light subunit-Tubulin Binding Site 1 (NFL-TBS1) (peptide),30,–
Neurofilament Light subunit-Tubulin Binding Site 2 (NFL-TBS2) (peptide),100,61
Neurofilament Medium subunit-Tubulin Binding Site (NFM-TBS) (peptide),30,–
Neurofilament high subunit-Tubulin Binding Site (NFH-TBS) (peptide),30,–
